Results: paper PMC11947619, “Molecular mechanism of Mad2 conformational conversion promoted by the Mad2‐interaction motif of Cdc20” (Protein Science : A Publication of the Protein Society, 2025)

What was measured:
O‐Mad2 = details: in vitro, ref Lad et al., [2009], Simonetta et al.; cited from earlier work
Source text: Juxtaposing the accessible Cdc20^MIM adjacent to O‐Mad2 by the MCC‐assembly scaffold involves the dimerization of an O‐Mad2 molecule with Mad1‐bound C‐Mad2 (Chen et al., [2023]; Fischer et al., [2022]; Lara‐Gonzalez et al., [2021]; Piano et al., [2021]).

[1] = Spontaneous O-Mad2 to C-Mad2 conversion / stability of the open state; assay type: physicochemical; details: NMR backbone assignment samples
Experimental: FIGURE 2 NMR fingerprinting of Mad2. (a) Structural orientations of Trp75 (on the αB helix) and Trp167 (on the “safety‐belt”) in Mad2 produce distinct indole NH resonances. […] NMR spectra for O‐Mad2^R133A and “empty” C‐Mad2^L13A/R133A and C‐Mad2^R133A:Cdc20^MIM‐111‐138 are from Fischer et al. ([2022]) (c) Mad2 conversion rates vary with different MIM peptides. Conversion was traced over 24 h at 25°C using the Trp75 and Trp167 side‐chain resonances as reporters. MIM peptides were added at two‐fold molar excess to Mad2 (100 μM). Each spectrum required 12 min of acquisition time, therefore the 15 min time‐points represent the earliest spectra in the time‐resolved series. The schematics show the conformation of Mad2 as indicated by the tryptophan side‐chain resonances. A black tick marks when conversion is considered complete. NMR data for O‐Mad2^R133A with and without Cdc20^MIM‐111‐138 shown are from Fischer et al. ([2022]). In the case of full‐length Cdc20, the MIM sequence is sequestered by an auto‐inhibitory intramolecular interaction within Cdc20 itself, which prevents it from being readily accessible for binding to C‐Mad2 (Piano et al., [2021]). Conversely, isolated MIM peptides lack this auto‐inhibitory mechanism, allowing them to bind directly to C‐Mad2 without obstruction. […]

C‐Mad2: Mad2 in the closed active state
enhancement of O-Mad2 to C-Mad2 conversion rate by dimerization with C-Mad2 (O‐Mad2): 3 to 4 fold

B1: Mad2^LL: loop‐less Mad2: residues 109–117 (…) replaced with GSG (protein)
chain: MALQLSREQGITLRGSAEIVAEFFSFGINSILYQRGIYPSETFTRVQKYGLTLLVTTDLELIKYLNNVVEQLKDWLYKCSVQKLVVVISNIESGEVLERWQFDIECDKGSGEKSQKAIQDEIRSVIRQITATVTFLPLLEVSCSFDLLIYTDKDLVVPEKWEESGPQFITNSEEVRLRSFTTTIHKVNSMVAYKIPVND
modifications: left off: His6, N-terminal, state not stated | DoubleStrep, N-terminal, state not stated
notes: loop‐less Mad2: residues 109–117 (…) replaced with GSG
limited stability (slow O-Mad2 to C-Mad2 conversion) [1]: < 3 days
